Results as given in paper PMC10942344 (bioRxiv, 2024).

Legend:
Assay in all cases: SPR
[1] = target: recombinant GP38 of CCHFV Oman-199809166 (CCHFV Oman-199809166, UniProt A0A0U3C6Q7, strain)
[2] = target: recombinant GP38 of CCHFV 200406546-Turkey (CCHFV 200406546-Turkey, UniProt A0A0U2SQZ0, strain)
[3] = target: recombinant GP38 of CCHFV Kosova-Hoti (CCHFV Kosova-Hoti, UniProt B2BSL7, strain)

Measured: Kd

B1: ADI-58048 IgG (antibody, V domains shown)
VH: QLQLQESGPGLVKPSETLSLTCTVSGGSITTSHYYWGWIRQPPGKGLEWVGSMYYSGGIYYNPSLKGRVTISVDTSKNQFSLKLSSVTAADTAVYYCALADAPDDAFDIWGQGTMVTVSS
VL: DIQMTQSPSSLSAFVGDRVTITCRASQSISSYLNWYQQKPGKAPKLLIYAASTLQSGVPSRFSGSGSGTDFTLTISSLQSEDFATYYCQESYSIPFTFGPGTKVDIK
< 0.398 nM: [1] | [2] | [3]
